Reference: IntAct's records for PubMed 11739401

B1: Ras-related protein Rab-2A (Homo sapiens), P61019 (parent)
chain: MAYAYLFKYIIIGDTGVGKSCLLLQFTDKRFQPVHDLTIGVEFGARMITIDGKQIKLQIWDTAGQESFRSITRSYYRGAAGALLVYDITRRDTFNHLTTWLEDARQHSNSNMVIMLIGNKSDLESRREVKKEEGEAFAREHGLIFMETSAKTASNVEEAFINTAKEIYEKIQEGVFDINNEANGIKIGPQHAATNATHAGNQGGQQAGGGCC
partner: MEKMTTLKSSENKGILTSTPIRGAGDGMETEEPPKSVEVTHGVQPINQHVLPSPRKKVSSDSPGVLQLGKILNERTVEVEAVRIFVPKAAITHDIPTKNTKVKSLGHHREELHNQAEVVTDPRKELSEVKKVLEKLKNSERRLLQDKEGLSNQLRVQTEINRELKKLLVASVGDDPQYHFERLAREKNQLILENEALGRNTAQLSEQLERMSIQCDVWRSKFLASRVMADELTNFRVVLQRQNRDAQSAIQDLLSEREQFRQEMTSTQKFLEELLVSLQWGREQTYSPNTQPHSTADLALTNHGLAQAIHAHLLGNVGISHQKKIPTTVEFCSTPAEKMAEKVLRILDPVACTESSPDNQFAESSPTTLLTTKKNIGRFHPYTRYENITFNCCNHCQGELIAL

Variants of: B1
Settings: with go45_mouse Blzf1, Q8R2X8

Variant	effect of a mutation on the interaction
Q65L	increasing interaction
